{"source": "patent US20210230266A1", "assay_in_all_cases": "cell-based or functional assay", "key": {"Human IL-11 (human)": {"target": "Human IL-11 (human) (UniProt P20809)", "sequence (P20809 22-199 limits assumed)": "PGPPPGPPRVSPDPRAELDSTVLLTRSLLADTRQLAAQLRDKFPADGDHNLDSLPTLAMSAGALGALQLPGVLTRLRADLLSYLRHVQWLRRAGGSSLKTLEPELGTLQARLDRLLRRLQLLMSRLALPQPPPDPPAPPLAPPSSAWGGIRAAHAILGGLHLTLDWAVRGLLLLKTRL"}, "[1]": {"target": "IL-11:IL-11Rα fusion protein (hyper IL-11) (human)", "sequence (chain, as listed by the source limits assumed)": "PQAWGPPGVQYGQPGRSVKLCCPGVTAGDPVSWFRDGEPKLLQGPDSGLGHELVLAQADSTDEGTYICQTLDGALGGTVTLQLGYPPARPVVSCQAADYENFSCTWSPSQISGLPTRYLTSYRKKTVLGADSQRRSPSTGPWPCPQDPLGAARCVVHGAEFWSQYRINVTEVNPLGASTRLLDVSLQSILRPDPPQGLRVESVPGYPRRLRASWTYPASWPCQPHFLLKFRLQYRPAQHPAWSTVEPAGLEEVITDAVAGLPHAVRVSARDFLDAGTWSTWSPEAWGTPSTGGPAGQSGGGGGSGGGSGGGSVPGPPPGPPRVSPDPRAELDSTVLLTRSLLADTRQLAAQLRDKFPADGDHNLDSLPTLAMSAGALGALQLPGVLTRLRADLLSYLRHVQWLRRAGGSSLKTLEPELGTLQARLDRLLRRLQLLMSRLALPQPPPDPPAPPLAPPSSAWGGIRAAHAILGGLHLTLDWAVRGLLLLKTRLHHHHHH"}, "Mouse IL-11 (mouse) [2]": {"target": "Mouse IL-11 (mouse) (UniProt P47873)", "sequence (P47873 22-199 limits assumed)": "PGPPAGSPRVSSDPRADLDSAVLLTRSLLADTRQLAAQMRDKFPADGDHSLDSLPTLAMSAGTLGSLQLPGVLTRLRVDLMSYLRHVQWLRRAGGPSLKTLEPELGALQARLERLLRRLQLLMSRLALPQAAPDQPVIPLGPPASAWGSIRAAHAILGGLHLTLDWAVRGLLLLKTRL"}, "Mouse IL-11 (mouse) [3]": {"target": "Mouse IL-11 (mouse) (UniProt P47873)", "remark": "listed apart in the source"}}, "note": "Like-named read-outs stand apart in the source and are kept apart here."}
{"substance": "Monoclonal mouse anti-human IL-11 antibody, IgG2A, Clone #22626, Catalog No. MAB218 (R&D Systems)", "values": [{"measurement": "fold of αSMA-positive cells relative to unstimulated cells, human atrial fibroblasts + TGFβ1", "setting": "Human IL-11 (human)", "result": 0.89, "unit": "times"}, {"measurement": "fold of αSMA-positive cells relative to unstimulated cells, human atrial fibroblasts + TGFβ1 (fold of unstimulated)", "setting": "Human IL-11 (human)", "result": 0.99}, {"measurement": "percentage of activated (αSMA-positive) fibroblasts, human atrial fibroblasts + TGFβ1", "setting": "Human IL-11 (human)", "result": 28.3, "unit": "%"}, {"measurement": "fold of αSMA-positive cells relative to unstimulated cells, human atrial fibroblasts + hyper IL-11 (fold of unstimulated)", "setting": "[1]", "result": 1.28}, {"measurement": "percentage of activated (αSMA-positive) fibroblasts, human atrial fibroblasts + hyper IL-11", "setting": "[1]", "result": 33.8, "unit": "%"}, {"measurement": "fold of αSMA-positive cells relative to unstimulated cells, mouse atrial fibroblasts + TGFβ1 (fold of unstimulated)", "setting": "Mouse IL-11 (mouse) [2]", "result": 1.24}, {"measurement": "percentage of activated (αSMA-positive) fibroblasts, mouse atrial fibroblasts + TGFβ1", "setting": "Mouse IL-11 (mouse) [2]", "result": 39.4, "unit": "%"}, {"measurement": "fold of αSMA-positive cells relative to unstimulated cells, mouse atrial fibroblasts + TGFβ1 (fold of unstimulated)", "setting": "Mouse IL-11 (mouse) [3]", "result": 1.44}, {"measurement": "percentage of activated (αSMA-positive) fibroblasts, mouse atrial fibroblasts + TGFβ1", "setting": "Mouse IL-11 (mouse) [3]", "result": 43, "unit": "%"}]}
